Measured values as given in paper PMC10847417.
Values belong to the substance of their own block, whether it stands above or below them.

Experiments:
[1] = molecular target: pyruvate kinase M2 (PKM2), endogenous (human (endogenous in A549 and H1299)) (UniProt P14618); assay: cross-linking; H1299 cell lysates (with Flag-CIP2A or siCIP2A) treated with 0.01% glutaraldehyde at 37 °C for 9 min, SDS-PAGE, western blot with anti-PKM2
[2] = molecular target: purified recombinant WT PKM2 expressed in bacteria (human) (UniProt P14618); assay: SEC; purified recombinant WT, S287A and S287D PKM2 expressed in bacteria; size exclusion chromatography with molecular mass standards
[3] = molecular target: HA-PKM2 (wild type), expressed in 293T cells (human) (UniProt P14618); assay: SEC; cell lysates (A549, H1299 or transfected 293T; with shCIP2A, pCDH-CIP2A or Flag-CIP2A) on Superdex 200 Increase 10/300 GL, 50 mM sodium phosphate, 0.15 M NaCl, pH 7.2; fractions analysed by western blot; both exogenous and endogenous PKM2 included

HA-PKM2 (wild type), expressed in 293T cells, P14618 1-531 (enzyme; other documents disagree on this pair), sequence (P14618 whole entry): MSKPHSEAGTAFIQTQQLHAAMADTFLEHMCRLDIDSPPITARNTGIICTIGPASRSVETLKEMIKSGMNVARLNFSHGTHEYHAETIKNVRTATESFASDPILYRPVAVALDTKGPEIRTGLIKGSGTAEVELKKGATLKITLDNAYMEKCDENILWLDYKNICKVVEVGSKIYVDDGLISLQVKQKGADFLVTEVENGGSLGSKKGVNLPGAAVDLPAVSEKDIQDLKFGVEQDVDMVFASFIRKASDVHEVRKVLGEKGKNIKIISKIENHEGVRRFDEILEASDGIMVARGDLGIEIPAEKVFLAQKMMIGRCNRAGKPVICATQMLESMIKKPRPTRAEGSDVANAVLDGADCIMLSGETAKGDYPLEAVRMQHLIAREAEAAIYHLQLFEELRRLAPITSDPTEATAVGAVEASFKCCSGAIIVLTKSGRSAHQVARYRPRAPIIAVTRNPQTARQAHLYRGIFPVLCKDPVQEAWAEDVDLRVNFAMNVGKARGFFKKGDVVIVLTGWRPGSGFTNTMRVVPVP
purified recombinant WT PKM2 expressed in bacteria, P14618 1-531 (enzyme; other documents disagree on this pair), sequence (P14618 whole entry): as above
pyruvate kinase M2 (PKM2), endogenous, P14618 1-531 (enzyme; other documents disagree on this pair), sequence (P14618 whole entry): as above

stoichiometry N [1]: 2
Substance: pyruvate kinase M2 (PKM2), endogenous, P14618 1-531 (enzyme; other documents disagree on this pair)

stoichiometry N [2]: 2
Substance: purified recombinant WT PKM2 expressed in bacteria, P14618 1-531 (enzyme; other documents disagree on this pair)

stoichiometry N [3]: 2
Substance: HA-PKM2 (wild type), expressed in 293T cells, P14618 1-531 (enzyme; other documents disagree on this pair)
